B1: Alanine--glyoxylate aminotransferase, P21549 (parent)
chain: MASHKLLVTPPKALLKPLSIPNQLLLGPGPSNLPPRIMAAGGLQMIGSMSKDMYQIMDEIKEGIQYVFQTRNPLTLVISGSGHCALEAALVNVLEPGDSFLVGANGIWGQRAVDIGERIGARVHPMTKDPGGHYTLQEVEEGLAQHKPVLLFLTHGESSTGVLQPLDGFGELCHRYKCLLLVDSVASLGGTPLYMDRQGIDILYSGSQKALNAPPGTSLISFSDKAKKKMYSRKTKPFSFYLDIKWLANFWGCDDQPRMYHHTIPVISLYSLRESLALIAEQGLENSWRQHREAAAYLHGRLQALGLQLFVKDPALRLPTVTTVAVPAGYDWRDIVSYVIDHFDIEIMGGLGPSTGKVLRIGLLGCNATRENVDRVTEALRAALQHCPKKKL

Variants of: B1
Conditions: Homo sapiens; pH 7.4; Thermal; DSC; Hepes 20 mM; NaCl 200 mM; transition: 2; reversible: No; structure 1H0C; whole UniProt chain shown

Variant	Tm [°C]	change of melting temperature, mutant - wild type (higher = more stable) [°C]	unfolding enthalpy (calorimetric) [kcal/mol]
MASHKLLVTPPKALLKPLSIPNQLLLGPGPSNLPPRIMAAGGLQMIGHMSKDMYQIMDEIKEGIQYVFQTRNPLTLVISGSGHCALEAALVNVLEPGDSFLVGANGIWGQRAVDIGERIGARVHPMTKDPGGHYTLQEVEEGLAQHKPVLLFLTHGESSTGVLQPLDGFGELCHRYKCLLLVDSVASLGGTPLYMDRQGIDILYSGSQKALNAPPGTSLISFSDKAKKKMYSRKTKPFSFYLDIKWLANFWGCDDQPRMYHHTIPVISLYSLRESLALIAEQGLENSWRQHREAAAYLHGRLQALGLQLFVKDPALRLPTVTTVAVPAGYDWRDIVSYVMDHFDIEIMGGLGPSTGKVLRIGLLGCNATRENVDRVTEALRAALQHCPKKKL [S48H I340M]	88	18	599
MASHKLLVTPPKALLKPLSIPNQLLLGPGPSNLPPRIMAAGGLQMIGHMSKEMYQIMDEIKEGIQYVFQTRNPLTLVISGSGHCALEAALVNVLEPGDSFLVGANGIWGQRAVDIGERIGARVHPMTKDPGGHYTLQEVEEGLAQHKPVLLFLTHGESSTGVLQPLDGFGELCHRYKCLLLVDSVASLGGTPLYMDRQGIDILYSGSQKALNAPPGTSLISFSDKAKKKMYSRKTKPFSFYLDIKWLANFWGCDDQPRMYHHTIPVISLYSLRESLALIAEQGLENSWRQHREAAAYLHGRLQALGLQLFVKDPALRLPTVTTVAVPAGYDWRDIVSYVMDHFDIEIMGGLGPSTGKVLRIGLLGCNATRENVDRVTEALRAALQHCPKKKL [S48H D52E I340M]	89.5	19.5	315
MASHKLLVTPPKALLKPLSIPNQLLLGPGPSNLPPRIMAAGGLQMIGSMSKEMYQIMDEIKEGIQYVFQTRNPLTLVISGSGHCALEAALVNVLEPGDSFLVGANGIWGQRAVDIGERIGARVHPMTKDPGGHYTLQEVEEGLAQHKPVLLFLTHGESSTGVLQPLDGFGELCHRYKCLLLVDSVASLGGTPLYMDRQGIDILYSGSQKALNAPPGTSLISFSDKAKKKMYSRKTKPFSFYLDIKWLANFWGCDDQPRMYHHTIPVISLYSLRESLALIAEQGLENSWRQHREAAAYLHGRLQALGLQLFVKDPALRLPTVTTVAVPAGYDWRDIVSYVMDHFDIEIMGGLGPSTGKVLRIGLLGCNATRENVDRVTEALRAALQHCPKKKL [D52E I340M]	86.9	16.9	573
MASHKLLVTPPKALLKPLSIPNQLLLGPGPSNLPPRIMAAGGLQMIGSMSKDMYQIMDEIKEGIQYVFQTRNPLTLVISGSGHCALEAALVNVLEPGDSFLVGANGIWGQRAVDIGERIGARVHPMTKDPGGHYTLQEVEEGLAQHKPVLLFLTHGESSTGVLQPLDGFGELCHRYKCLLLVDSVASLGGTPLYMDRQGIDILYSGSQKALNAPPGTSLISFSDKAKKKMYSRKTKPFSFYLDIKWLANFWGCDDQPRMYHHTIPVISLYSLRESLALIAEQGLENSWRQHREAAAYLHGRLQALGLQLFVKDPALRLPTVTTVAVPAGYDWRDIVSYVMDHFDIEIMGGLGPSTGKVLRIGLLGCNATRENVDRVTEALRAALQHCPKKKL [I340M]	84.1	14.1	530
MASHKLLVTPPKALLKPLSIPNRLLLGPGPSNLPPRIMAAGGLQMIGHMSKEMYQIMDEIKEGIQYVFQTRNPLTLVISGSGHCALEAALVNVLEPGDSFLVGANGIWGQRAADIGERIGARVHPMTKDPGGHYTLQEVEEGLAQHKPVLLFLTHGESSTGVLQPLDGFGELCHRYKCLLLVDSVASLGGTPLYMDRQGIDILYSGSQKALNAPPGTSLISFSDKAKKKMYSRKTKPFSFYLDIKWLANFWGCDDQPRMYHHTIPVISLYSLRESLALIAEQGLENSWRQHREAAAYLHGRLQALGLQLFVKDPALRLPTVTTVAVPAGYDWRDIVSYVMDHFDIEIMGGLGPSTGKVLRIGLLGCNATRENVDRVTEALRAALQHCPKKKL [Q23R S48H D52E V113A I340M]	93.7	23.7	638
MASHKLLVTPPKALLKPLSIPNQLLLGPGPSNLPPRIMAAGGLQMIGSMSKEMYQIMDEIKEGIQYVFQTRNPLTLVISGSGHCALEAALVNVLEPGDSFLVGANGIWGQRAVDIGERIGARVHPMTKDPGGHYTLQEVEEGLAQHKPVLLFLTHGESSTGVLQPLDGFGELCHRYKCLLLVDSVASLGGTPLYMDRQGIDILYSGSQKALNAPPGTSLISFSDKAKKKMYSRKTKPFSFYLDIKWLANFWGCDDQPRMYHHTIPVISLYSLRESLALIAEQGLENSWRQHREAAAYLHGRLQALGLQLFVKDPALRLPTVTTVAVPAGYDWRDIVSYVIDHFDIEIMGGLGPSTGKVLRIGLLGCNATRENVDRVTEALRAALQHCPKKKL [D52E]	84.4	14.4	544
MASHKLLVTPPKALLKPLSIPNQLLLGPGPSNLPPRIMAAGGLQMIGHMSKEMYQIMDEIKEGIQYVFQTRNPLTLVISGSGHCALEAALVNVLEPGDSFLVGANGIWGQRAADIGERIGARVHPMTKDPGGHYTLQEVEEGLAQHKPVLLFLTHGESSTGVLQPLDGFGELCHRYKCLLLVDSVASLGGTPLYMDRQGIDILYSGSQKALNAPPGTSLISFSDKAKKKMYSRKTKPFSFYLDIKWLANFWGCDDQPRMYHHTIPVISLYSLRESLALIAEQGLENSWRQHREAAAYLHGRLQALGLQLFVKDPALRLPTVTTVAVPAGYDWRDIVSYVMDHFDIEIMGGLGPSTGKVLRIGLLGCNATRENVDRVTEALRAALQHCPKKKL [S48H D52E V113A I340M]	91	21	613
MASHKLLVTPPKALLKPLSIPNQLLLGPGPSNLPPRIMAAGGLQMIGSMHKDMYQIMDEIKEGIQYVFQTRNPLTLVISGSGHCALEAALVNVLEPGDSFLVGANGIWGQRAVDIGERIGARVHPMTKDPGGHYTLQEVEEGLAQHKPVLLFLTHGESSTGVLQPLDGFGELCHRYKCLLLVDSVASLGGTPLYMDRQGIDILYSGSQKALNAPPGTSLISFSDKAKKKMYSRKTKPFSFYLDIKWLANFWGCDDQPRMYHHTIPVISLYSLRESLALIAEQGLENSWRQHREAAAYLHGRLQALGLQLFVKDPALRLPTVTTVAVPAGYDWRDIVSYVIDHFDIEIMGGLGPSTGKVLRIGLLGCNATRENVDRVTEALRAALQHCPKKKL [S50H]	67.1	-2.9	357
MASHKLLVTPPKALLKPLSIPNQLLLGPGPSNLPPRIMAAGGLQMIGHMSKDMYQIMDEIKEGIQYVFQTRNPLTLVISGSGHCALEAALVNVLEPGDSFLVGANGIWGQRAVDIGERIGARVHPMTKDPGGHYTLQEVEEGLAQHKPVLLFLTHGESSTGVLQPLDGFGELCHRYKCLLLVDSVASLGGTPLYMDRQGIDILYSGSQKALNAPPGTSLISFSDKAKKKMYSRKTKPFSFYLDIKWLANFWGCDDQPRMYHHTIPVISLYSLRESLALIAEQGLENSWRQHREAAAYLHGRLQALGLQLFVKDPALRLPTVTTVAVPAGYDWRDIVSYVIDHFDIEIMGGLGPSTGKVLRIGLLGCNATRENVDRVTEALRAALQHCPKKKL [S48H]	85.5	15.5	520
MASHKLLVTPPKALLKPLSIPNQLLLGPGPSNLPPRIMAAGGLQMIGSMSKDMYQIMDEIKEGIQYVFQTRNPLTLVISGSGHCALEAALVNVLEPGDSFLVGANGIWGQRAADIGERIGARVHPMTKDPGGHYTLQEVEEGLAQHKPVLLFLTHGESSTGVLQPLDGFGELCHRYKCLLLVDSVASLGGTPLYMDRQGIDILYSGSQKALNAPPGTSLISFSDKAKKKMYSRKTKPFSFYLDIKWLANFWGCDDQPRMYHHTIPVISLYSLRESLALIAEQGLENSWRQHREAAAYLHGRLQALGLQLFVKDPALRLPTVTTVAVPAGYDWRDIVSYVIDHFDIEIMGGLGPSTGKVLRIGLLGCNATRENVDRVTEALRAALQHCPKKKL [V113A]	83.2	13.2	502
